The text below walks through data of paper PMC3474971.

This series has as its target thrombin (UniProt P00734;P00734 328-363;364-622). Kind of series: dye-displacement fluorescence; YOYO-1 25 nM, aptamer 10 nM; 20 mM Tris-Cl pH 7.5, 300 mM NaCl, 5 mM MgCl2, 10 mM KCl; 25 C; 30 min incubation with target before dye.

Turning to ATAGCGGAGGAAGGATACCTGGGGGAGTATAT (structured_DNA) [ATP aptamer], the binding result is given as “no binding”.
